# Assay results from IntAct's records for PubMed 16263329.
# B1: Anti-sigma-F factor antagonist RsfB (Mycobacterium tuberculosis (strain ATCC 25618 / P9WGE1 (parent)
# chain: MSAPDSITVTVADHNGVAVLSIGGEIDLITAAALEEAIGEVVADNPTALVIDLSAVEFLGSVGLKILAATSEKIGQSVKFGVVARGSVTRRPIHLMGLDKTFRLFSTLHDALTGVRGGRIDR
# partner: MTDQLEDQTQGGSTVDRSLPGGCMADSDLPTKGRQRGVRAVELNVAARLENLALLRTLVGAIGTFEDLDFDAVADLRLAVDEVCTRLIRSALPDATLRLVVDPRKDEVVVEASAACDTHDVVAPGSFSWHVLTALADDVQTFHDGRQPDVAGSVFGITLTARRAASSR
# Variants of: B1
# Settings: with rsbw_myctu rsbW
row,Variant,effect of a mutation on the interaction
1,MSAPDSITVTVADHNGVAVLSIGGEIDLITAAALEEAIGEVVADNPTALVIDLSAVEFLGAVGLKILAATSEKIGQSVKFGVVARGSVTRRPIHLMGLDKTFRLFSTLHDALTGVRGGRIDR [S61A],decreasing interaction
